# In patent US20110166329A1:
# What was measured:
# [1] = biological target: human serum amyloid P component (SAP) (human) (UniProt P02743); assay: IRMA; SAP non-covalently immobilised; antibody at 100 µg/ml; radiolabelled sheep polyvalent anti-mouse IgG
# [2] = biological target: human serum amyloid P component (SAP) (human) (UniProt P02743); assay: IRMA; SAP non-covalently immobilised; antibody at 0.1 µg/ml; radiolabelled sheep anti-mouse IgG2a
# [3] = biological target: human SAP complexed with CPHPC and covalently cross linked with BS3 (human) (UniProt P02743); assay: IRMA; SAP-CPHPC complex covalently immobilised; in calcium; radiolabelled sheep anti-mouse IgG; mean n=3
# [4] = biological target: human serum amyloid P component (SAP) (human) (UniProt P02743); assay: IRMA; SAP alone captured on immobilised sheep polyclonal anti-human SAP; in calcium; radiolabelled sheep anti-mouse IgG; mean n=3
# [5] = biological target: human serum amyloid P component (SAP) (human) (UniProt P02743); assay: IRMA; SAP non-covalently immobilised; antibody at 10 µg/ml; radiolabelled sheep anti-mouse IgG2a
# [6] = biological target: human serum amyloid P component (SAP) (human) (UniProt P02743); assay: IRMA; SAP alone covalently immobilised; in EDTA; radiolabelled sheep anti-mouse IgG; mean n=3
# [7] = biological target: human SAP complexed with CPHPC and covalently cross linked with BS3 (human) (UniProt P02743); assay: IRMA; SAP-CPHPC complex captured on immobilised sheep polyclonal anti-human SAP; in calcium; radiolabelled sheep anti-mouse IgG; mean n=3
# [8] = biological target: human serum amyloid P component (SAP) (human) (UniProt P02743); assay: IRMA; SAP non-covalently immobilised; antibody at 0.1 µg/ml; radiolabelled sheep polyvalent anti-mouse IgG
# [9] = biological target: human serum amyloid P component (SAP) (human) (UniProt P02743); assay: IRMA; SAP non-covalently immobilised; antibody at 100 µg/ml; radiolabelled sheep anti-mouse IgG2a
# [10] = biological target: human serum amyloid P component (SAP) (human) (UniProt P02743); assay: IRMA; SAP non-covalently immobilised; antibody at 1 µg/ml; radiolabelled sheep anti-mouse IgG2a
# [11] = biological target: human serum amyloid P component (SAP) (human) (UniProt P02743); assay: IRMA; SAP alone covalently immobilised; in calcium; radiolabelled sheep anti-mouse IgG; mean n=3
# [12] = biological target: human serum amyloid P component (SAP) (human) (UniProt P02743); assay: Biacore; isolated pure SAP alone immobilised on the chip
# [13] = biological target: human serum amyloid P component (SAP) (human) (UniProt P02743); assay: IRMA; SAP non-covalently immobilised; antibody at 0.001 µg/ml; radiolabelled sheep polyvalent anti-mouse IgG
# [14] = biological target: human serum amyloid P component (SAP) (human) (UniProt P02743); assay: IRMA; SAP non-covalently immobilised; antibody at 0.001 µg/ml; radiolabelled sheep anti-mouse IgG2a
# [15] = biological target: human serum amyloid P component (SAP) (human) (UniProt P02743); assay: IRMA; SAP non-covalently immobilised; antibody at 1 µg/ml; radiolabelled sheep polyvalent anti-mouse IgG
# [16] = biological target: human serum amyloid P component (SAP) (human) (UniProt P02743); assay: IRMA; SAP non-covalently immobilised; antibody at 0.01 µg/ml; radiolabelled sheep polyvalent anti-mouse IgG
# [17] = biological target: human SAP complexed with CPHPC and covalently cross linked with BS3 (human) (UniProt P02743); assay: IRMA; SAP-CPHPC complex covalently immobilised; in EDTA; radiolabelled sheep anti-mouse IgG; mean n=3
# [18] = biological target: human serum amyloid P component (SAP) (human) (UniProt P02743); assay: IRMA; SAP non-covalently immobilised; antibody at 0.01 µg/ml; radiolabelled sheep anti-mouse IgG2a
# [19] = biological target: human serum amyloid P component (SAP) (human) (UniProt P02743); assay: IRMA; SAP non-covalently immobilised; antibody at 10 µg/ml; radiolabelled sheep polyvalent anti-mouse IgG
# Chain of human serum amyloid P component (SAP) (human) (P02743 20-223): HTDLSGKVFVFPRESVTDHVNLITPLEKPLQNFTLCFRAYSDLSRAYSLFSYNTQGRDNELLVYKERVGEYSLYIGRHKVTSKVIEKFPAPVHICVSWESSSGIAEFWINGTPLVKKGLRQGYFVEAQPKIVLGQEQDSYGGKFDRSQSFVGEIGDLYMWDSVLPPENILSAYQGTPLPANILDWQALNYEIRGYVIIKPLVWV
# Chain of human SAP complexed with CPHPC and covalently cross linked with BS3 (human) (P02743 20-223, one chain of several): as the sequence (P02743 20-223) above
substance,measurement,setting,value
SAP-5 (antibody),Activity bound (d.p.m.),[1],16200 d.p.m.
same,Activity bound (d.p.m.),[2],589 d.p.m.
same,Activity bound (d.p.m.),[3],6160 d.p.m.
same,Activity bound (d.p.m.),[4],9310 d.p.m.
same,Activity bound (d.p.m.),[5],1980 d.p.m.
same,Activity bound (d.p.m.),[6],4050 d.p.m.
same,Activity bound (d.p.m.),[7],7120 d.p.m.
same,Activity bound (d.p.m.),[8],4560 d.p.m.
same,Activity bound (d.p.m.),[9],2200 d.p.m.
same,Activity bound (d.p.m.),[10],1650 d.p.m.
same,Activity bound (d.p.m.),[11],5580 d.p.m.
same,koff,[12],6e-05 s⁻¹
same,kon,[12],20000 M⁻¹ s⁻¹
same,Activity bound (d.p.m.),[13],195 d.p.m.
same,Activity bound (d.p.m.),[14],94 d.p.m.
same,Activity bound (d.p.m.),[15],12100 d.p.m.
same,Activity bound (d.p.m.),[16],902 d.p.m.
same,Activity bound (d.p.m.),[17],5140 d.p.m.
same,Activity bound (d.p.m.),[18],222 d.p.m.
same,Activity bound (d.p.m.),[19],15400 d.p.m.
